Measurements published in the DeepSol protein solubility set.

Assay: soluble on expression in E. coli; label from the status in PepcDB or PDB records

Q: With “MKTIHIYTNGRFEEKQSGIVREFPLVLHVNGREIATLISSPHDLRFLVAGFLRNQGFVERAEDFHMLAVCDDFGIANARIRGELPERLKPVLTSGCGTGVTFTLETPKIPPPLALPAITTDAVFRLMEELARRADNYRSHGGIHSAAVGDGEGNLLLFAEDIGRHNTLDRIAGEALFKGIDLAGTILVTSGRVSTEMAAKCARLGIALIASRTSATDMAVKMCDEAGIPLIGYVRGGKFTVYAHHERLAMAPPVGAIHELPLPASAQGRRIPGITGVILAGGQSRRMGSNKALLPYKGGRFIEAIHRQLAEIFDEVLLVTNNPEQYDFLPCRKVADIHPGMGALAGIHAGLHHAANPAAFMVACDMPYLNSDLIRHLATLADPGGVLIPESPAGLEPLHAVYGKGCLAAIETTLLSGERRIVSFFGRTNVNRVNAEQVALFDPDYATFSNINTPVDYYRLRDGERDELDAALGADRIAGLEHHHHHH” as the sequence, how does the “soluble on expression in E. coli” value read?
A: not soluble

Q: Which “soluble on expression in E. coli” value does the source give for “MGFFSGQFSNVVEWEEFREDMIFWKWHNREIKRGSKLIIRPGQDAIFLFNGRIEGIFKDEGDYDIESQIIPFLSTLQGFKFGFNSGMRAEVLFVNTKEFTAKWGTKSAINIPTPQLPGGIPIRANGTFTFKVNDYVKLIDRIAGVKDSFLVEDVRLRIMALLDQLMMKWIVQEGRDMFNLQSNSFAIADGLKTDLDMQIYDMGITVSQLTIMSFTYPEEIQQMIAKAASHTMIGDMGRYQQVSVLDGIAGGKLEHHHHHH” here?
A: not soluble

Q: For “EVYALEESRDVYLSDLDWLNATHGDDTKSKIVQKNHPFTPGNNNQSTKISLKMEDGSISEFEKGLGTIAGSPSTITYDISGAGVTKFFSYLGIDRSANPINEQYAKVDKIEVVVDGKVIYSTINQFPNGLTYETPAIKVDLNIPENAKRLQLKSYAGEKTWGDEVVYADAKFTAKGDFVN”, which “soluble on expression in E. coli” value is on record?
A: soluble

Q: Which “soluble on expression in E. coli” value does the source give for “MLISIESKEHYRILCIDGGSTDQTIPMIERLQRELKHISLIQLQNASIATCINKGLMDIKMTDPHDSDAFMVINPTSIVLPGKLDRLTAAFKNNDNIDMVIGQRAYNYHGEWKLKSADEFIKDNRIVTLTEQPDLLSMMSFDGKLFSAKFAELQCDETLANTYNHAILVKAMQKATDIHLVSQMIVGDNDIDTHATSNDEDFNRYIIEIMKIRQRVMEMLLLPEQRLLYSDMVDRILFNNSLKYYMNEHPAVTHTTIQLVKDYIMSMQHSDYVSQNMFDIINTVEFIGENWDREIYELWRQTLIQVGINRPTYKKFLIQLKGRKFAHRTKSMLKRLEHHHHHH” here?
A: not soluble

Q: With “MGSDKIHHHHHHLGGGGIRPSHLLADEGGGPPYRPPAGRPVPSVPALMKLNAIEAGSAAADRVPLLILHGLLGSARNWGAVVKALGESRRVLALDLPNHGSSPWTEIMDYPFMARELASVIEHLGGRAAIMGHSMGGKAAMTLALSRPELVERLVVVDIAPVSYSHTFAPYIKAMRGVPLGEVSSRGEVEAALAGAIPDKGVRAFLMQNLEGGAGGYRWRPNLAVLGAHMDDILAFPHFPDDTAFQGPTLFVAGETSDYIRPAHEDVIAQFFPKAESVEIPGAGHWVHADNPSAFMSAIGSFL” as the sequence, how does the “soluble on expression in E. coli” value read?
A: not soluble

Q: With “MAHHHHHHMDEKPRLIEHTSACRGTADVLILSGFPWYVTEGQVRKYLTEIHPSNIAPLTVRLYTNPANGSSRGICFVEYCPKQSNTGGASQGIKNEFPERKQKGEAEDIAALMKLRIEATAYERHYIRVLLYRLTNRNWDRGGRLPDLPTDPPPLATSRGGVLEGYGDEGFTVRCSALLGLANTVTPNGIASMQTLRKRFREEAAKAAMPNKSDEGYPGSSAARQ” as the sequence, how does the “soluble on expression in E. coli” value read?
A: not soluble

Q: Which “soluble on expression in E. coli” value does the source give for “MRIEVVNVSHIFHRGTPLEKKALENVSLVINEGECLLVAGNTGSGKSTLLQIVAGLIEPTSGDVLYDGERKKGYEIRRNIGIAFQYPEDQFFAERVFDEVAFAVKNFYPDRDPVPLVKKAMEFVGLDFDSFKDRVPFFLSGGEKRRVAIASVIVHEPDILILDEPLVGLDREGKTDLLRIVEKWKTLGKTVILISHDIETVINHVDRVVVLEKGKKVFDGTRMEFLEKYDPRFFTSKMLVMRRLVLKGEDPFSMSDDELLERVCNS” here?
A: soluble

Q: For “MAHHHHHHMNEPSSGETNLQGGEDDVSAKGRSYGGAGGEKDAESNMNPSDNNTSSAVEDNHENSAQKEGADELGEDALNEMFDDFLKDIENISSNMENQQEGKKLNKGDAESEIARLLANKNSSPFEIFGIHEDVDMEKIKSKYRRLSVLIHPDKCKIEKASEAFHILNKAYEELKKDDIKEQYKSVYETAKKNIIKKLNLKKIRNELNEYLNKNEEEYEITKEVQLLINEECENLLKVQKEKMEYAQKCKLANLQYAKEKEEEKMKEELKKEEERKLWIEGREERVNNWKNYKKDNLKTEKEFHIYKNVGKKKEERTEEEKEKLKRISTTNPMEK”, which “soluble on expression in E. coli” value is on record?
A: soluble

Q: Which “soluble on expression in E. coli” value does the source give for “MEKSAPSIILNHWCVTWQGHHFLCRNLSNIKILNRRNGYTTLDLPLTLGDLTQYRLAHGLSENLMALSPYSWTIPFLVSSSETPGIELLPKVINDFGTPLSLAIKTNLPSIPAHQLLFYIIFLRPSPLTSMSCYARPLSLASTPSLEHHHHHH” here?
A: soluble

Q: With “MSQYSLQVGLTPEGPCSYLPKQKERLAVVMEQELHTALGYQALIRLGFRRSGETIYKPMCEHCDACKPLRINANQFKPSKSQKRLLNKLSSFRWELKSEMDGNWFDLYERYINTRHKTGSMYPANQKQFFEFSHSHWLTNQFLHIYENETLIAIAVSDVLSDSISAMYTFFEPEHPLSLGTISVLIQLKLCKELSKEWLYPGYQIDDCPAMKYKDQYKPNQKLVNMVWQGLEHHHHHH” as the sequence, how does the “soluble on expression in E. coli” value read?
A: soluble

Q: Which “soluble on expression in E. coli” value does the source give for “MDPTEMRYLEEENGAMMKTFKDAVTGFATGKTSLVFIGVEQLVQNFRAKRDFFNGAHITMTKVARTHY” here?
A: soluble

Q: Which “soluble on expression in E. coli” value does the source give for “SNAMNFFTSPFSGIPLDQQVTNPNIIVGKHSYYSGYYHGHSFDDCVRYLHPERDDVDKLVIGSFCSIGSGAVFMMAGNQGHRSDWISTFPFFYQDNDNFADARDGFTRSGDTIIGHDVWIGTEAMIMPGVKIGHGAIIASRSVVTKDVAPYEVVGSNPAKHIKFRFSDVEIAMLLEMAWWNWPESWLKESMQSLCSSDIEGLYLNWQSKART” here?
A: soluble

Q: Which “soluble on expression in E. coli” value does the source give for “MAHHHHHHMLYHYDILKYNSNHEYNNCSYFKNTFVHFFDYIYNIKMMKEYNDLKAKICINKEFNILFNILNKMNYSFAYRDKKLIKMNDCLYHTYHIIGIKKISSIGYIFNFKNELNDNFSKVLKTKISNILSIEDIYFLFNRFFYFLLMYIRKFCCFSNKKDTNIPQNEAETFVNSVCNCKQDNCCYKIKTIVLINNIQ” here?
A: not soluble

Q: With “SSIEFLAVEKQKIIAKETLELYAKIAGRIGMYPVKTQLADLSFKVLDPKNFNNTLSKINQQKVFYDNEWGNFKKQLEEMLEQNQIEYRLE” as the sequence, how does the “soluble on expression in E. coli” value read?
A: not soluble

Q: Which “soluble on expression in E. coli” value does the source give for “MAHHHHHHSLIISSLTNPNFKVGLPKVIAEVCDYLNTLDLNALENGRHDINDQIYMNVMEPETAEPSSKKAELHHEYLDVQVLIRGTENIEVGATYPNLSKYEDYNEADDYQLCADIDDKFTVTMKPKMFAVFYPYEPHKPCCVVNGKTEKIKKLVVKVPVKLIEG” here?
A: not soluble

Q: For “MSLKTGTTLEKLAQVKTVAFDKTGTITQGKLVVDQVVPQGSQSADRLLQLAASAEQHSSHVLAQSLVAANRLPLLTATNVTETTAQGVVATINGQQVRAGKAAFVTSESITKPDQTAVYVAVDDVYQGYVSFNDRVRPEAATTMTRLRQAGVAHLMMISGDRQPIAEQIAQEVGLDQVHAECLPAGKIAVLDQLAANQRPVAMVGDGINDAPSLATADVGIAMGAHGATAASESADAVVLKDDLTRVSTARVIAQDTMRVARQSEGHHHHHH”, which “soluble on expression in E. coli” value is on record?
A: soluble

Q: Which “soluble on expression in E. coli” value does the source give for “MHHHHHHSSGVDLGTENLYFQSMMQKLVVTRLSPNFREAVTLSRDCPVPLPGDGDLLVRNRFVGVNASDINYSAGRYDPSVKPPFDIGFEGIGEVVALGLSASARYTVGQAVAYMAPGSFAEYTVVPASIATPVPSVKPEYLTLLVSGTTAYISLKELGGLSEGKKVLVTAAAGGTGQFAMQLSKKAKCHVIGTCSSDEKSAFLKSLGCDRPINYKTEPVGTVLKQEYPEGVDVVYESVGGAMFDLAVDALATKGRLIVIGFISGYQTPTGLSPVKAGTLPAKLLKKSASVQGFFLNHYLSKYQAAMSHLLEMCVSGDLVCEVDLGDLSPEGRFTGLESIFRAVNYMYMGKNTGKIVVELPH” here?
A: soluble

Q: Which “soluble on expression in E. coli” value does the source give for “SNAMRSAQVYRWQIPMDAGVVLRDRRLKTRDGLYVCLRDGEREGWGEISPLPGFSQETWEEAQTALLTWVNDWLQGSEGLPEMPSVAFGASCALAELTGVLPEAADYRAAPLCTGDPDDLVLRLADMPGEKIAKVKVGLYEAVRDGMVVNLLLEAIPDLHLRLDANRAWTPLKAQQFAKYVNPDYRARIAFLEEPCKTRDDSRAFARETGIAIAWDESLREADFTFEAEEGVRAVVIKPTLTGSLDKVREQVAAAHALGLTAVISSSIESSLGLTQLARIAAWLTPGTLPGLDTLHLMQAQQIRPWPGSALPCLKREELERLL” here?
A: soluble

Q: Which “soluble on expression in E. coli” value does the source give for “MGSDKIHHHHHHMQMKQVLLEARQDFLSLLKRRGWKEKDLNILRGIFLGELSRVDVPADIFELAIKEAVKGNLKLSSKLLGVSEIDTLEILFWYLPKKYPLPSERLKKRLKAESVKEFIEEANRLRVKLGKKDFMELYLHLEEAEEEEEKRENTDLLERVRNLSIEKLSESEIEELRYFYSLLDLRGKESVRTLNVHPYILSAIIRNPSAPIVIDGSNLLWRGGLSVSYIYEVFERLAVFREFFFPYRIVFDRNAEFVLPVHERKGFERWKNSPNVLFESPADGLIISLANTMDAVVLSGDRFRDHGLPRRVRVLTPEEIEKG” here?
A: not soluble

Q: Which “soluble on expression in E. coli” value does the source give for “QVQLQESGPGLMKPSETLSLTCSVSGDSIRSDYWSWIRKPPGKGLEYIGYVSYSGSTYYNPSLKSRVTISVDTSKNRFSLKLNSVTAADTAVYYCARWDGDYWGQGILVTVSS” here?
A: soluble

Q: With “SFQGIRQPVTVTELVDSGILRPSTVNELESGQISYDEVGERIKDFLQGSSCIAGIYNETTKQKLGIYEAMKIGLVRPGTALELLEAQAATGFIVDPVSNLRLPVEEAYKRGLVGIEFKEKLLSAERAVTGYNDPETGNIISLFQAMNKELIEKGHGIRLLEAQIATGGIIDPKESHRLPVDIAYKRGYFNEELSEILSDPSDDTKGFFDPNTEENLTYLQLKERCIKDEETGLCLLPLKEKKKQVQTS” as the sequence, how does the “soluble on expression in E. coli” value read?
A: soluble

Q: With “MLNILDIITDWIKEILRDCIMGNLDGMFDQINNEVGEVAANVGTTPAAWNAGVFSMIRNLSDT” as the sequence, how does the “soluble on expression in E. coli” value read?
A: not soluble

Q: With “MGHHHHHHGGHMSLGALILSDRDIRALLAIGDLVVEPLSGDTVRENGLDLRLGRGFCRFKRSDRVLDPRAPGSPGEFYECGEGDEIIVGPGEHMLLHTQEYIRLPGYVAGLVNLRSTWARTGIYIPATVVDAGFEGQLTIEVVGSGFPVKLYPGDRFLHLVLVKLQSPAMNPYRGRYQGQRGVRLPKLFAKNTGEGGS” as the sequence, how does the “soluble on expression in E. coli” value read?
A: soluble

Q: With “MGSDKIHHHHHHMTQDFSEIFAKYEALVADVDNVFKRVQEAHPECVTCEKGCSDCCYAVFDLSLVEAMYLNHRFGQKFSFGPERSVIVERADETDRKLVKLKRQAHRDVQNGRDAEEILQDMGRVRVRCPLLGETDGCELYEYRPITCRLYGIPTAIGGKAHSCGKSAFLAGKQYPTVNIDRIHERLAQLSLEIRDAVHSRFSELHTVLVPVSMALLTTYDDAYLGAGATAKGNE” as the sequence, how does the “soluble on expression in E. coli” value read?
A: not soluble

Q: Which “soluble on expression in E. coli” value does the source give for “MGSDKIHHHHHHARIVYLNHCYPSPKVITYTDNDTIKLGNYEIKQTGWEWGDGSLLKEKCPDYAYDQTDDGSEYPFDSVRVGFITLSVTKVKDDTTSLDLTSLAFEMGTNGDQYDMELFFALNPTLEALEIKLNAGEDVSFVIPYIMDEQQVSKKDWSRVDKMKLYMVLQYYPQKIRLCCN” here?
A: not soluble

Q: For “MSLQIHALFPTAVATAQLRLDPLEMAAQLQTLLMLRGADEGNPNSGCAWTGDLNGVWQLHRHPDFSGMTDRVVEQAWAYLSAVGFDQAKLALHVQRCWPVLSDWDQMVGRHHHPNAHLSAVLYLSGSGSGEDGVLRIHAPSQPNELVPGSAAGHGGPIAAGHPLNQPHWDLAPQPGLLVLFPSRLDHSVLANGDPELLRCSISFDFVLTAPVDGDPPEYLAPHPSLWTPQPLEVNEGHHHHHH”, which “soluble on expression in E. coli” value is on record?
A: soluble
